Measurements as given in patent publication WO2006033413A1 (dated 2006).

Columns and labels:
OC-1 peptide [1] = target: T1, OC-1 peptide (human); assay: competitive inhibition ELISA on OC peptide-BSA with free OC peptide (hybridoma screening)
T1 construct: Conjugated to BSA as the coating antigen in the screening ELISA; also called C-terminal 12 amino acid partial peptide of human osteocalcin
T1 peptide: FQEAYRRFYGPV

[2] = target: human osteocalcin (human) (UniProt P02818); assay: ELISA: 0.5 ug/mL KTM-219 on plate coated with 2 ug/mL human osteocalcin, peroxidase anti-mouse IgG detection (zero-competitor point of the competition ELISA)
OC-1 peptide [3] = target: T1, OC-1 peptide; assay: open sandwich ELISA: MBP-VL adsorbed on plate, VH-AP in solution, p-nitrophenyl phosphate, OD405

Binder | binding result (OC-1 peptide [1]) | absorbance (450 nm) without OC-1 peptide [2] | binding result (OC-1 peptide [3])
mouse monoclonal antibody KTM-219 (antibody, IgG1, V domains shown, Biotin-labelled when used as the detection antibody in the sandwich ELISA; also called anti-OC-1 peptide monoclonal antibody) VH: EVQLEESGAEFVKAGASVKLSCKTSGYTFNNYWIHWVKQSPGQGLEWIGEIDPSDGYSNYNQKFKGKATLTVDKSSSTAYMHLNSLTSEDSAVYYCTSSTSVGGSWGQGTTVTVSS VL: DIELTQSPLSLPVSLGDQASISCTSSQSLLHSNGDTYLHWYLQKPGQSPKLLIYTLSNRFSGVPDRFSGSGSGTDFTLKISRVEAADLGIYFCSQTTHVPYTFGGGTKLEIKR | binds | 2.28 absorbance | –
KTM-219 VH-AP fusion protein together with MBP-VL fusion protein (open sandwich pair) (other, Two separate purified periplasmic proteins; MBP-VL (about 56.5 kDa) is adsorbed on the plate and VH-AP (about 61.9 kDa) is added in solution; also called VH-alkaline phosphatase fusion protein; pET-VH219-AP product; not shown: E. coli alkaline phosphatase (1450 bp fragment of pPhoA); His tag; His-Myc tag) VH: EVQLEESGAEFVKAGASVKLSCKTSGYTFNNYWIHWVKQSPGQGLEWIGEIDPSDGYSNYNQKFKGKATLTVDKSSSTAYMHLNSLTSEDSAVYYCTSSTSVGGSWGQGTTVTVSS VL: DIELTQSPLSLPVSLGDQASISCTSSQSLLHSNGDTYLHWYLQKPGQSPKLLIYTLSNRFSGVPDRFSGSGSGTDFTLKISRVEAADLGIYFCSQTTHVPYTFGGGTKLEIKR | – | – | binds
